According to article PMC9649737:
Changes are numbered by the printed parent chain. Numbers in names are those of the source. One block for each binder: values may come before it.

Biological target: recombinant PD-1 molecule (rPD-1), Q15116
Test: ELISA
Settings: chain shown with the change, coated antigen (rPD1): 2 µg/mL and 50 µL/well, read off a plot
[1] = L-chain 4 µM, parent: est. 0.94
[2] = L-chain 20 µM, parent: est. 1.14
[3] = L-chain 20 µM (prozone region for this mutant), parent: est. 1.14

Chain of recombinant PD-1 molecule (rPD-1), Q15116 (Q15116 25-167): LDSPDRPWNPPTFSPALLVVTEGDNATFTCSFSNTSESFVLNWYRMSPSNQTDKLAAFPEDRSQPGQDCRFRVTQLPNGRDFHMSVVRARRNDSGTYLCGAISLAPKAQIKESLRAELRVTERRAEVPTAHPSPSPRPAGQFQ

- response [1]: 0.69 OD (490nm)
- response [2]: 1.1 OD (490nm)
B1: H34 wild type (H34wt) catalytic antibody light chain T93A (protein)
chain: DIQMTQSPSTLSASVGDRVTITCRASQSISSWLAWYQQKPGKAPKVLIYKASTLESGVPLRFSGSGSGTEFTLTISSLQPDDFATYYCQQYSAYRTFGQGTKVEIK

- response [1]: 0.09 OD (490nm)
- response [2]: 0.13 OD (490nm)
B2: H34 wild type (H34wt) catalytic antibody light chain R96P (protein)
chain: B1 chain with A93T, R95P

- response [1]: 1.12 OD (490nm)
- response [3]: 0.63 OD (490nm)
B3: H34 wild type (H34wt) catalytic antibody light chain D1A (protein)
chain: B1 chain with D1A, A93T

- response [1]: 1.15 OD (490nm)
- response [3]: 0.61 OD (490nm)
B4: H34 wild type (H34wt) catalytic antibody light chain T97A (protein)
chain: B1 chain with A93T, T96A

- response [1]: 0.07 OD (490nm)
- response [2]: 0.16 OD (490nm)
B5: H34 wild type (H34wt) catalytic antibody light chain R96A (protein)
chain: B1 chain with A93T, R95A
